Measured values published in the Human Domainome abundance scans (Beltran et al. 2025).
± gives the uncertainty stated by the source.

B1: Gamma-crystallin C, residues 4 to 79; numbered along this chain, P07315 (parent)
chain: ITFYEDRAFQGRSYETTTDCPNLQPYFSRCNSIRVESGCWMLYERPNYQGQQYLLRRGEYPDYQQWMGLSDSIRSC

Variants of: B1
Experiment: abundance fitness (aPCA) (normalised: wild type 0, dead -1); higher = more abundant; growth selection in yeast, the domain comes from the species named
Conditions: Homo sapiens

Row | Variant | abundance fitness
1 | Y14W | 0.112 ± 0.09
2 | Y14D | -0.895 ± 0.26
3 | Y14A | -0.024 ± 0.1
4 | S72I | 0.007 ± 0.17
5 | S72L | -0.052 ± 0.072
6 | S72V | -0.012 ± 0.077
7 | S72M | 0.019 ± 0.11
8 | M41H | -0.186 ± 0.18
9 | M41P | -0.981 ± 0.32
10 | M41C | -0.041 ± 0.11
11 | M41S | 0.068 ± 0.1
12 | M41L | -0.056 ± 0.08
13 | N22G | -0.158 ± 0.085
14 | N22V | 0.026 ± 0.06
15 | N22W | -0.19 ± 0.094
16 | C39Q | -0.088 ± 0.12
17 | C39Y | -0.014 ± 0.092
18 | C39N | -0.12 ± 0.26
19 | C39A | -0.051 ± 0.12
20 | C39T | -0.012 ± 0.1
21 | D6P | -0.819 ± 0.45

Row | Variant | abundance fitness
22 | D6T | 0.057 ± 0.13
23 | D6V | -0.164 ± 0.14
24 | D6K | 0.086 ± 0.23
25 | D6Y | 0.032 ± 0.23
26 | D6N | -0.035 ± 0.21
27 | D6E | -0.038 ± 0.12
28 | D6G | -0.009 ± 0.055
29 | L42N | -0.967 ± 0.46
30 | L42R | -1.16 ± 0.33
31 | L42D | -0.857 ± 0.48
32 | R34Y | -0.098 ± 0.2
33 | R34S | -0.143 ± 0.096
34 | R34D | -0.382 ± 0.27
35 | R34Q | -0.041 ± 0.17
36 | R34L | -0.077 ± 0.076
37 | R7T | -0.237 ± 0.19
38 | R7K | -0.141 ± 0.2
39 | R7N | 0.044 ± 0.12
40 | R7Y | -0.266 ± 0.24
41 | F3I | -0.368 ± 0.18
42 | F3K | -0.991 ± 0.27

Row | Variant | abundance fitness
43 | F3C | -0.586 ± 0.13
44 | F3S | -1.01 ± 0.27
45 | F3W | -0.789 ± 0.14
46 | F3G | -1.23 ± 0.23
47 | S75I | -0.186 ± 0.15
48 | S75P | -0.66 ± 0.12
49 | S75C | 0.044 ± 0.12
50 | S75L | 0.044 ± 0.068
51 | S75V | -0.226 ± 0.053
52 | S75K | -0.59 ± 0.19
53 | S75R | -0.479 ± 0.069
54 | S75E | -0.793 ± 0.27
55 | G11R | -0.155 ± 0.047
56 | G11E | -0.321 ± 0.21
57 | G11L | -0.41 ± 0.072
58 | T17F | -0.152 ± 0.14
59 | T17I | -0.227 ± 0.2
60 | T17W | -0.092 ± 0.18
61 | T17D | -0.135 ± 0.16
62 | T17A | -0.014 ± 0.096
63 | T2C | -0.054 ± 0.35

Row | Variant | abundance fitness
64 | T2V | 0.049 ± 0.13
65 | T2A | -0.254 ± 0.098
66 | T2K | -0.039 ± 0.12
67 | Y63N | -0.088 ± 0.21
68 | Y63R | -0.049 ± 0.05
69 | Y63I | -0.028 ± 0.099
70 | Y63Q | -0.12 ± 0.093
71 | Y63G | -0.041 ± 0.067
72 | Y63S | -0.06 ± 0.083
73 | Q24P | -0.308 ± 0.21
74 | N31T | -0.056 ± 0.4
75 | N31R | -0.013 ± 0.24
76 | N31A | -0.576 ± 0.42
77 | G38W | -0.427 ± 0.29
78 | G38R | -0.153 ± 0.055
79 | G38L | -0.177 ± 0.091
80 | G38M | -0.141 ± 0.34
81 | G38E | -0.009 ± 0.2
82 | G38D | 0.171 ± 0.11
83 | R56V | 0.039 ± 0.088
84 | R56F | 0.195 ± 0.22
